± gives the standard deviation of the averaged measurements.
B1: library; a variant is named by its letters at N, in order (parent)
chain: GCUGUCACCGGUGUAUUACCCUAGUGGUCGACCGGUCUGAUGAGUCUNNNNNNAGACGAAACAGC

Tests used:
hypoxanthine [1] = variants of: B1; test: FACS-Seq fitted mean relative fluorescence mCherry/BFP without ligand (log10 relative fluorescence); ligand: hypoxanthine (xanthine aptamer); higher = higher reporter protein expression; conditions: HEK293T, ligand present: no
Summary of the method: (§1)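 An mCherry reporter containing the ribozyme switch and an EF1α-BFP marker were introduced by lentivirus into HEK293T libraries. Cells were enriched, incubated 48 h with or without ligand, sorted into 6 bins by mCherry/BFP, and bin genomic DNA was PCR-amplified, barcoded and sequenced on MiSeq. Fluorescence represents the normalized fitted normal mean of the bin counts. Fitting was done on log10(mCherry/BFP), scaling to five spiked-in control ribozymes.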

hypoxanthine [2] = variants of: B1; test: normalized RNA/DNA level with ligand (relative to sTRSVctl = 100) (log10 (% of sTRSVctl)); ligand: hypoxanthine (xanthine aptamer); higher = less ribozyme self-cleavage, higher mRNA level; conditions: ligand concentration (+) RNA-Seq: 5 mM, HEK293T, reporter: mCherry (pCS4076), ligand present: yes
Summary of the method: (§2)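 Only sequences with at least 100 DNA reads were analyzed, from HEK293T cells transfected with 4 µg per 6-well well of ribozyme switch library plasmids 72 h before RNA extraction with EDTA. Any ligand was added 1 h before transfection. RNA level was defined as RNA over DNA reads, normalized to a spiked-in non-cleaving sequence or to the top sequences, then scaled and log-transformed. The top set was 25 sequences, and the scaling was ×100 followed by log10.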

hypoxanthine [3] = variants of: B1; test: normalized RNA/DNA level without ligand (relative to sTRSVctl = 100) (log10 (% of sTRSVctl)); ligand: hypoxanthine (xanthine aptamer); higher = less ribozyme self-cleavage, higher mRNA level; conditions: HEK293T, reporter: mCherry (pCS4076), ligand present: no
Summary of the method: as §2

hypoxanthine [4] = variants of: B1; test: FACS-Seq fitted mean relative fluorescence mCherry/BFP with ligand (log10 relative fluorescence); ligand: hypoxanthine (xanthine aptamer); ligand concentration (+) FACS-Seq: 5 mM; higher = higher reporter protein expression; conditions: HEK293T, ligand present: yes
Summary of the method: as §1

Row | Variant | FACS-Seq fitted mean (log10) (hypoxanthine [1]) | normalized RNA/DNA level with ligand (log10) (hypoxanthine [2]) | normalized RNA/DNA level without ligand (log10) (hypoxanthine [3]) | FACS-Seq fitted mean (log10) (hypoxanthine [4])
1 | GCCAAA | 0.458 ± 0.073 | 1.95 ± 0.042 | 1.813 ± 0.017 | 0.612 ± 0.1
2 | UCGUGG | 0.572 ± 0.0094 | 1.9 ± 0.024 | 1.593 ± 0.0033 | 0.819 ± 0.066
3 | ACAUAA | 0.531 ± 0.011 | 1.899 ± 0.0086 | 1.79 ± 0.021 | 0.532 ± 0.029
4 | AAUUAG | 0.404 ± 0.012 | 1.86 ± 0.037 | 1.52 ± 0.032 | 0.681 ± 0.03
5 | CCAAGC | 0.126 ± 0.14 | 1.938 ± 0.012 | 1.79 ± 0.15 | 0.366 ± 0.074
6 | GGUUUU | 0.313 ± 0.029 | 1.93 ± 0.053 | 1.894 ± 0.0067 | 0.378 ± 0.028
7 | AUUUGA | 0.636 ± 0.085 | 1.91 ± 0.033 | 1.6633 ± 0.00044 | 0.602 ± 0.16
8 | UCGCAA | 0.477 ± 0.093 | 1.9 ± 0.032 | 1.6 ± 0.06 | 0.599 ± 0.058
9 | UCGCAG | 0.221 ± 0.04 | 1.918 ± 0.015 | 1.65 ± 0.078 | 0.46 ± 0.083
10 | GGUGAC | 0.507 ± 0.018 | 1.8808 ± 0.00054 | 1.798 ± 0.0044 | 0.543 ± 0.1
11 | ACAGAG | 0.0524 ± 0.0076 | 1.79 ± 0.044 | 1.34 ± 0.041 | 0.353 ± 0.058
12 | AGCAGA | 0.386 ± 0.043 | 1.879 ± 0.01 | 1.41 ± 0.027 | 0.623 ± 0.019
13 | CAAGAG | 0.342 ± 0.095 | 1.86 ± 0.036 | 1.57 ± 0.03 | 0.473 ± 0.018
14 | UUGCCG | 0.171 ± 0.068 | 1.98 ± 0.039 | 1.83 ± 0.038 | 0.358 ± 0.006
15 | GAGGUG | 0.14 ± 0.057 | 1.78 ± 0.031 | 1.33 ± 0.025 | 0.551 ± 0.026
16 | GAACAA | 0.477 ± 0.021 | 1.91 ± 0.046 | 1.732 ± 0.0073 | 0.62 ± 0.022
17 | AAUAAA | 0.416 ± 0.064 | 1.872 ± 0.014 | 1.756 ± 0.011 | 0.252 ± 0.092
18 | GUGGAA | 0.0876 ± 0.0021 | 1.88 ± 0.031 | 1.61 ± 0.0033 | -0.0768 ± 0.16
19 | GCGGAU | 0.308 ± 0.01 | 1.863 ± 0.0028 | 1.48 ± 0.039 | 0.547 ± 0.08
20 | GAACCG | 0.156 ± 0.11 | 1.9 ± 0.08 | 1.48 ± 0.052 | 0.296 ± 0.017
21 | UAGGGG | 0.118 ± 0.086 | 1.87 ± 0.037 | 1.5 ± 0.022 | 0.393 ± 0.018
22 | AAAUAA | 0.684 ± 0.016 | 1.89 ± 0.024 | 1.74 ± 0.025 | 0.775 ± 0.11
23 | GGAUAC | 0.616 ± 0.019 | 1.93 ± 0.026 | 1.73 ± 0.042 | 0.623 ± 0.084
24 | UCUUGA | 0.296 ± 0.011 | 1.94 ± 0.035 | 1.51 ± 0.036 | 0.572 ± 0.0065

Row | Variant | FACS-Seq fitted mean (log10) (hypoxanthine [1]) | normalized RNA/DNA level with ligand (log10) (hypoxanthine [2]) | normalized RNA/DNA level without ligand (log10) (hypoxanthine [3]) | FACS-Seq fitted mean (log10) (hypoxanthine [4])
25 | AAGUAU | 0.434 ± 0.12 | 1.895 ± 0.011 | 1.68 ± 0.019 | 0.301 ± 0.0055
26 | GCACAG | 0.227 ± 0.034 | 1.863 ± 0.00078 | 1.45 ± 0.021 | 0.0639 ± 0.076
27 | AAUGGA | 0.265 ± 0.081 | 1.88 ± 0.022 | 1.61 ± 0.038 | 0.192 ± 0.36
28 | AGUUUA | 0.474 ± 0.011 | 1.93 ± 0.025 | 1.79 ± 0.027 | 0.651 ± 0.098
29 | AUCUAA | 0.268 ± 0.023 | 1.905 ± 0.019 | 1.78 ± 0.022 | 0.411 ± 0.03
30 | GCCUCG | 0.33703 ± 0.00012 | 1.91 ± 0.039 | 1.6 ± 0.029 | 0.649 ± 0.049
31 | CCGUGU | 0.225 ± 0.038 | 1.89 ± 0.12 | 1.69 ± 0.017 | 0.616 ± 0.025
32 | UCGAGU | -0.023 ± 0.0044 | 1.74 ± 0.037 | 1.2 ± 0.071 | 0.407 ± 0.029
33 | UGCGGA | 0.465 ± 0.014 | 1.87 ± 0.056 | 1.518 ± 0.0062 | 0.733 ± 0.033
34 | UGCGGC | 0.67 ± 0.028 | 1.98 ± 0.035 | 1.9 ± 0.071 | 0.708 ± 0.037
35 | GUUAGA | 0.572 ± 0.13 | 1.905 ± 0.0029 | 1.694 ± 0.0036 | 0.619 ± 0.075
36 | GUUAGG | 0.451 ± 0.026 | 1.8 ± 0.045 | 1.38 ± 0.033 | 0.648 ± 0.03
37 | AAGGAA | 0.159 ± 0.16 | 1.869 ± 0.015 | 1.53 ± 0.0077 | 0.411 ± 0.07
38 | GCUUUA | 0.789 ± 0.044 | 1.8872 ± 0.00046 | 1.93 ± 0.027 | 0.795 ± 0.071
39 | AGCCUU | 0.466 ± 0.071 | 1.97 ± 0.022 | 1.933 ± 0.0025 | 0.317 ± 0.091
40 | ACUCCC | -0.354 ± 0.031 | 1.96 ± 0.06 | 1.924 ± 0.019 | -0.746 ± 0.075
41 | GGGAAU | 0.489 ± 0.043 | 1.93 ± 0.045 | 1.64 ± 0.021 | 0.654 ± 0.069
42 | GUCUAA | 0.326 ± 0.054 | 1.94 ± 0.048 | 1.801 ± 0.0053 | 0.458 ± 0.0071
43 | ACGGAC | 0.332 ± 0.11 | 1.92 ± 0.06 | 1.7 ± 0.029 | 0.565 ± 0.062
44 | ACGAAU | 0.0248 ± 0.013 | 1.77 ± 0.0059 | 1.19 ± 0.025 | 0.504 ± 0.01
45 | AAUCUA | 0.651 ± 0.051 | 1.922 ± 0.014 | 1.8 ± 0.059 | 0.6869 ± 0.0045
46 | AUACUG | 0.294 ± 0.022 | 1.86 ± 0.077 | 1.43 ± 0.088 | 0.634 ± 0.025
47 | AAGAAU | 0.521 ± 0.035 | 1.906 ± 0.0038 | 1.65 ± 0.018 | 0.5797 ± 0.0012
48 | CACGCU | 0.785 ± 0.049 | 1.93 ± 0.034 | 1.87 ± 0.021 | 0.774 ± 0.079

Row | Variant | FACS-Seq fitted mean (log10) (hypoxanthine [1]) | normalized RNA/DNA level with ligand (log10) (hypoxanthine [2]) | normalized RNA/DNA level without ligand (log10) (hypoxanthine [3]) | FACS-Seq fitted mean (log10) (hypoxanthine [4])
49 | CGGCAU | -0.119 ± 0.0088 | 1.9 ± 0.037 | 1.56 ± 0.1 | 0.0858 ± 0.0049
50 | GGAACG | 0.254 ± 0.083 | 1.88 ± 0.072 | 1.503 ± 0.015 | 0.597 ± 0.098
51 | UACGGA | 0.543 ± 0.045 | 1.927 ± 0.0098 | 1.59 ± 0.03 | 0.703 ± 0.039
52 | GCAAAC | 0.411 ± 0.03 | 1.91 ± 0.023 | 1.6 ± 0.036 | 0.455 ± 0.055
53 | CGUACA | 0.575 ± 0.038 | 1.92 ± 0.061 | 1.72 ± 0.037 | 0.49 ± 0.085
54 | UCCCCA | 0.858 ± 0.055 | 1.94 ± 0.08 | 1.82 ± 0.036 | 0.843 ± 0.088
55 | AACACC | 0.754 ± 0.017 | 1.9322 ± 0.00016 | 1.9 ± 0.02 | 0.806 ± 0.073
56 | AAUAGG | 0.109 ± 0.012 | 1.75 ± 0.046 | 1.28 ± 0.1 | 0.509 ± 0.025
57 | AGGAAA | 0.102 ± 0.031 | 1.87 ± 0.019 | 1.56 ± 0.037 | 0.42 ± 0.058
58 | CGAUAG | 0.613 ± 0.0027 | 1.86 ± 0.12 | 1.7 ± 0.063 | 0.639 ± 0.052
59 | ACUAAC | -0.0807 ± 0.092 | 1.95 ± 0.057 | 1.8 ± 0.041 | 0.0498 ± 0.032
60 | GUAAUC | 0.801 ± 0.026 | 1.95 ± 0.046 | 1.756 ± 0.012 | 0.81 ± 0.068
61 | UAAAUU | 0.543 ± 0.057 | 1.92 ± 0.024 | 1.85 ± 0.035 | 0.516 ± 0.066
62 | GCGCAG | -0.0972 ± 0.035 | 1.58 ± 0.048 | 1.06 ± 0.11 | 0.617 ± 0.052
63 | GUGCAC | 0.5159 ± 0.0044 | 1.87 ± 0.046 | 1.672 ± 0.0021 | 0.536 ± 0.016
64 | UGCUCA | 0.419 ± 0.016 | 1.94 ± 0.0052 | 1.98 ± 0.061 | 0.498 ± 0.057
65 | AACGAC | 0.305 ± 0.007 | 1.94 ± 0.02 | 1.79 ± 0.028 | 0.279 ± 0.064
66 | UCUCAG | 0.173 ± 0.045 | 1.82 ± 0.061 | 1.34 ± 0.038 | 0.474 ± 0.094
67 | GAGCGG | -0.363 ± 0.054 | 1.64 ± 0.037 | 1.21 ± 0.073 | 0.0659 ± 0.25
68 | CAAUGU | 0.483 ± 0.12 | 1.91 ± 0.034 | 1.86 ± 0.062 | 0.48 ± 0.078
69 | GAAACU | 0.54 ± 0.047 | 1.92 ± 0.042 | 1.89 ± 0.039 | 0.481 ± 0.042
70 | AAACGG | 0.034 ± 0.0048 | 1.73 ± 0.061 | 1.23 ± 0.082 | 0.486 ± 0.027
71 | GGAGCA | 0.654 ± 0.037 | 1.946 ± 0.0077 | 1.783 ± 0.0088 | 0.686 ± 0.1
72 | GAGUAC | 0.301 ± 0.14 | 1.907 ± 0.019 | 1.71 ± 0.041 | 0.51 ± 0.013
